Laboratory results from paper PMC5033356, “Crystal Structure of the Escherichia coli Fic Toxin-Like Protein in Complex with Its Cognate Antitoxin” (PLoS ONE, 2016).

Key:
[1] = molecular target: T1, EcFicT (E. coli Fic toxin-like protein, wild type) (Escherichia coli, UniProt P20605 3-200); assay: SEC-MALS; conditions: both partners purified
T1 construct: EcFicT, product of the fic gene (renamed ecficT) of Escherichia coli; UniProt P20605; model of PDB 5JFZ covers residues 10-81, 88-195; also called EcFicTwt; Fic protein from E. coli
T1 sequence: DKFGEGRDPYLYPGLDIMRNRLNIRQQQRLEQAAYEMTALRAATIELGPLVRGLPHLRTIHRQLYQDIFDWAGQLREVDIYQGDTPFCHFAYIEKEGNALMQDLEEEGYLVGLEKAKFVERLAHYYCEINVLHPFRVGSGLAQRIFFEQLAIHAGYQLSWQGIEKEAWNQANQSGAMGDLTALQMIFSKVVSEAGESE

EcFicT_(G55R) = molecular target: T2, EcFicT_(G55R) (Escherichia coli, UniProt P20605 3-200, G55R); assay: SEC-MALS; conditions: both partners purified
T2 construct: EcFicT of Escherichia coli, UniProt P20605, with G55R (the change encoded by the temperature-sensitive fic-1 allele), introduced by a single base-pair mutation; model of PDB 5JFF covers residues 10-15, 17-198; G55R is the change of the fic-1 mutant allele described by Utsumi et al; here it was introduced into the plasmid by mutagenesis; also called G55R point mutant of EcFicT; product of the …
T2 sequence: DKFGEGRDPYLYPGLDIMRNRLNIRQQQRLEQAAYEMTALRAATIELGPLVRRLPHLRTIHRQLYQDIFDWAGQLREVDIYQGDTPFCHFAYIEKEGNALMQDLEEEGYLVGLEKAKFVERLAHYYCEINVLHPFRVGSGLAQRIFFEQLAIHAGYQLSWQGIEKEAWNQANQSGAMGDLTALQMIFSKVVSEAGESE

B1: EcFicA (cognate antitoxin of EcFicT, wild type) (natural protein, Escherichia coli)
chain: KKLTDKQKSRLWELQRNRNFQASRRLEGVEMPLVTLTAAEALARLEELRSHYER
notes: EcFicA, product of the yhfG gene (renamed ecficA) of Escherichia coli; UniProt P0ADX5; model of PDB 5JFF covers residues 3-53; also called EcFicAwt; YhfG
[1]
  stoichiometry N: 1
EcFicT_(G55R)
  stoichiometry N: 1

B2: EcFicA_(E28G) (natural protein, Escherichia coli)
chain: KKLTDKQKSRLWELQRNRNFQASRRLGGVEMPLVTLTAAEALARLEELRSHYER
notes: model of PDB 5JFZ covers residues 5-53; also called antitoxin mutant EcFicA_(E28G)
[1]
  stoichiometry N: 1
EcFicT_(G55R)
  stoichiometry N: 1
